By stoichiometry N is commonly meant the number of molecules, sites or subunits per partner or assembly.

From paper doi:10.1101/2021.04.27.441613 (bioRxiv, 2021) come the findings set out here.

The data set concerns the molecule itself. Description: SEC + other: SDS-PAGE.

B1: dLanYFP (other)
chain: MSLPATHELHIFGSFNGVDFDMVGRGTGNPNDGYEELNLKSTKGALQFSPWILVPQIGYGFHQYLPFPDGMSPFQAAMKDGSGYQVHRTMQFEDGASLTSNYRYTYEGSHIKGEFQVKGTGFPADGPVMTNSLTAADWCVTKMLYPNDKTIISTFDWTYTTGSGKRYQSTVRTTYTFAKPMAANILKNQPMFVFRKTELKHSKTELNFKEWQKAFTDVM
Take B1: the “stoichiometry N” value was found to be 2.
